{
  "source": "patent US20050002904A1",
  "about": "“Uses of vascular endothelial growth factor and type I collagen inducible protein (VCIP)” (priority 2003, published 2005)",
  "key": {"α2β1 integrin": {"target": "α2β1 integrin (Homo sapiens, UniProt P05556+P17301)", "assay": "Solid phase ligand binding assay (ELISA)", "conditions": "immobilized integrin, GST-fusion ligand in solution", "method": "(§1) FIG. 10A: Affinity purified GST-fusion proteins were resolved on SDS±PAGE and stained with Coomassie Blue. FIG. 10B: Integrins were immobilized onto 96-well plates, and various GST-fusion proteins (ligands) were allowed to bind. Bound ligands were incubated with anti-GST antibodies, appropriate substrate added and the color intensity measured. OD values <0.05 were considered to be background binding. Data are expressed as mean±SD (n=4). FIG. 10C: Dose-dependent binding of αvβ3 integrin with recombinant GST-VCIP-RGD. FIGS. 10D-F: Representative photomicrographs of adhesion and spreading of endothelial cells replated onto dishes coated with either […]. Cells were allowed to attach for 45 min, washed with PBS and stained with H&E. Magnification, 100×. Bar, 25 μm. FIG. 10G: Adhesion blocking assays. Endothelial cells were replated onto dishes coated with increasing concentrations of affinity purified fusion proteins (1, 5 and 10 nM). Attached cells were stained, washed and absorbances of eluted dyes measured. To determine the effects of anti-integrin antibodies, dishes were coated with 10 nM GST-VCIP-RGD. Endothelial cells were pre-incubated at 4° C. with increasing concentrations of anti-α5β1 (P1D6), anti-αvβ3 (LM609), anti-α2β1 (MAB 1998) and anti-α3β1 (P1B5) monoclonal antibodies (1, 5 and 10 μg/ml) for 30 min, then washed and replated onto coated dishes. Attached cells were stained, washed and absorbances of eluted dyes determined. Three independent experiments were performed with several replicate samples in each experiment. Data are expressed as mean±S.D.; diamond, P<0.01; asterisk, P<0.001. FIG. 10H: Clarified extracts prepared from [^35S]Cys/Met-labeled HdMVEC were pre-adsorbed and incubated with GST-VCIP-RGD in the absence (−) or presence (+) of GRGDSP peptide (lanes 1 and 2). The presence of αvβ3 and α5β1 integrins (lanes 5 and 6) in GST-VCIP pull-down complex (lane 1) was confirmed by incubating aliquots of dissociated complex with the indicated antibodies. Anti-mouse IgG was included as negative control (lane 3).\n(§2) Solid phase ligand binding assays were performed according to a previously published procedure (Orlando and Cheresh, 1991). Briefly, soluble α2β1, α5β1, αvβv3 and αvβ5 integrins (1 μg/ml in a solution containing 20 mM Tris pH 7.4, 150 mM NaCl, 1 mM CaCl2, 1 mM MgCl2 and 1 mM MnCl2) were immobilized onto 96-well microtiter plates at 4° C. Wells were washed and blocked with 0.5% BSA. After washing, GST, GST-VCIP-RGD and GST-VCIP-RGE ligands were added (50-350 ng per well in a solution of TBS pH 7.4) and incubated at 37° C. for 1 h. After washing, the wells were incubated with the anti-GST (sc-138, Santa Cruz) monoclonal antibody for 1 h, followed by washing and incubation with a horseradish peroxidase (HRP)-conjugated mouse secondary antibody. Plates were then washed again and the ABTS substrate (Bio-Rad) was added. All washing steps were carried out using PBS. Absorbances were read at 405 nm, and non-specific binding values were adjusted against BSA.\n(§3) To determine whether GST-VCIP-RGD could interact with various integrins, a solid-phase ligand binding assay was performed."}, "α5β1 integrin": {"target": "α5β1 integrin (Homo sapiens, UniProt P05556+P08648)", "sequence (P08648 42-894 limits assumed)": "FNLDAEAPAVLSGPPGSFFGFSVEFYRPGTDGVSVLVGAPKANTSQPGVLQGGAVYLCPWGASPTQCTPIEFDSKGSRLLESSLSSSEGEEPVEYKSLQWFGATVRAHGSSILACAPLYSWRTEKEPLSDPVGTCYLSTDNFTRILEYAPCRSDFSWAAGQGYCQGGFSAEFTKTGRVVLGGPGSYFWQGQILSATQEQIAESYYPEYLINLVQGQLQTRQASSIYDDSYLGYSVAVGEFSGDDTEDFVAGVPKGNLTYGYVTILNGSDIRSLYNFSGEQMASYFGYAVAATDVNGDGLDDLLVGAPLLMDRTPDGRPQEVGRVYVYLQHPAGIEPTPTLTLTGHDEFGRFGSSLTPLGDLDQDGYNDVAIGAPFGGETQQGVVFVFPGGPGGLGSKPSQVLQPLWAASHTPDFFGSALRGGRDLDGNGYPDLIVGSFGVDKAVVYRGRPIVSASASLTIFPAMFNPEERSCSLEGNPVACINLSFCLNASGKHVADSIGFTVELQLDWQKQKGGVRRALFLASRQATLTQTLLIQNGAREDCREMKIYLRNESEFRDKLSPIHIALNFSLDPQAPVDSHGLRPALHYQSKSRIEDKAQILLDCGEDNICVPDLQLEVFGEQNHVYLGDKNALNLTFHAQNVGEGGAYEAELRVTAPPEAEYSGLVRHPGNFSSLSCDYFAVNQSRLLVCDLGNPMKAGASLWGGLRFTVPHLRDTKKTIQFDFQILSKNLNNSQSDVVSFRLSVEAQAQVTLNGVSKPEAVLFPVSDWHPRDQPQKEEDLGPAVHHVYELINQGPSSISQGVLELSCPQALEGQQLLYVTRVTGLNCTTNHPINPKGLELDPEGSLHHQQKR", "sequence (P08648 895-1049 limits assumed)": "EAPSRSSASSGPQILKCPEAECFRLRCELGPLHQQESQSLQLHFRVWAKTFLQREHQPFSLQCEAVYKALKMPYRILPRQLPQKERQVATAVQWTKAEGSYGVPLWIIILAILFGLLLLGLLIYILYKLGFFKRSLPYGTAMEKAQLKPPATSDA", "sequence (P05556 21-798)": "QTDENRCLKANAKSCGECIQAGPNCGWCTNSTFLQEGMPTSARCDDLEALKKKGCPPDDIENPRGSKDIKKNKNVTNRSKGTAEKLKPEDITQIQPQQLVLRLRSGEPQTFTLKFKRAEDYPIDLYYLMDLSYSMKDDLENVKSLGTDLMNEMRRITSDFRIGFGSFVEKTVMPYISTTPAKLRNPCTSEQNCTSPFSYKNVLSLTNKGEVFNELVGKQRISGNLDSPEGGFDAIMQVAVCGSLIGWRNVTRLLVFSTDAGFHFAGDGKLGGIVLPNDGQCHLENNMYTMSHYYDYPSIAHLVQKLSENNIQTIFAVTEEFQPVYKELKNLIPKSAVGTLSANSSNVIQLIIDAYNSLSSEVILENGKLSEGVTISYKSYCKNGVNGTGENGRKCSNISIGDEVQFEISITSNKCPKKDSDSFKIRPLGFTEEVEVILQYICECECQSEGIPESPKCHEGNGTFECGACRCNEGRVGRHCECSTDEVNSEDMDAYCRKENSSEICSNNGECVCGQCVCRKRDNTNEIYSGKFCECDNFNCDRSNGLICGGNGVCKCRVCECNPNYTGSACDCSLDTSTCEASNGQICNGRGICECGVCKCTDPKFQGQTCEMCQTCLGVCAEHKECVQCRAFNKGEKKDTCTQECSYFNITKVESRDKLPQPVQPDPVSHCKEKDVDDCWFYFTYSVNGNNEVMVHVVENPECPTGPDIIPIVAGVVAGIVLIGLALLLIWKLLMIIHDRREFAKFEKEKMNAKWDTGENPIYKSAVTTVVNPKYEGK", "assay": "Solid phase ligand binding assay (ELISA)", "conditions": "immobilized integrin, GST-fusion ligand in solution", "method": "as §1, §2, §3"}, "αvβ3 integrin": {"target": "αvβ3 integrin (Homo sapiens, UniProt P05106+P06756)", "sequence (P06756 31-889 limits assumed)": "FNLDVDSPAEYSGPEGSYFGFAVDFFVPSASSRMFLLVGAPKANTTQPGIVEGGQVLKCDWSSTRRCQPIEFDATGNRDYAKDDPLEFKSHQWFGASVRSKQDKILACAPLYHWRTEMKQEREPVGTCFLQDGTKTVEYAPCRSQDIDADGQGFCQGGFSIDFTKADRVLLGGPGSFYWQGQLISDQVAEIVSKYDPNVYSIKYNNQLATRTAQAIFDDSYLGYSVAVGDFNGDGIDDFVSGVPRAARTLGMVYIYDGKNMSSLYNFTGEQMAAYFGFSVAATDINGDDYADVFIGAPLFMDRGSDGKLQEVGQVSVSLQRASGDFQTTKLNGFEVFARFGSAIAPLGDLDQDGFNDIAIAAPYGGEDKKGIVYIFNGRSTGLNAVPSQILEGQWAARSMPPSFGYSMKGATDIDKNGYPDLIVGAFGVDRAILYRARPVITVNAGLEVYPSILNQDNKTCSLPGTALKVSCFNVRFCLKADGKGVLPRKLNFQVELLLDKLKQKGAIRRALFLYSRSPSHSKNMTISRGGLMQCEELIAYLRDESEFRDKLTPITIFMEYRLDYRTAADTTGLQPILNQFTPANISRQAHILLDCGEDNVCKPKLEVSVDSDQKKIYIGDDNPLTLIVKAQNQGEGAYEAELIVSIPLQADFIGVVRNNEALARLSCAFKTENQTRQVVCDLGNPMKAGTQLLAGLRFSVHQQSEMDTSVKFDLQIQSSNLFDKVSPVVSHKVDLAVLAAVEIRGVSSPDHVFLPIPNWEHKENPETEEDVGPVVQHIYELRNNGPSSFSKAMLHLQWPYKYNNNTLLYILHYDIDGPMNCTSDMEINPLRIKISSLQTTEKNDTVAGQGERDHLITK", "sequence (P06756 891-1048 limits assumed)": "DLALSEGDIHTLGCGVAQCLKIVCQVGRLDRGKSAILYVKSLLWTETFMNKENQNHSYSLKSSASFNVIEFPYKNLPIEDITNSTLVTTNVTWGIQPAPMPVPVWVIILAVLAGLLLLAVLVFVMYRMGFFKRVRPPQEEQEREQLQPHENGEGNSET", "sequence (P05106 27-788)": "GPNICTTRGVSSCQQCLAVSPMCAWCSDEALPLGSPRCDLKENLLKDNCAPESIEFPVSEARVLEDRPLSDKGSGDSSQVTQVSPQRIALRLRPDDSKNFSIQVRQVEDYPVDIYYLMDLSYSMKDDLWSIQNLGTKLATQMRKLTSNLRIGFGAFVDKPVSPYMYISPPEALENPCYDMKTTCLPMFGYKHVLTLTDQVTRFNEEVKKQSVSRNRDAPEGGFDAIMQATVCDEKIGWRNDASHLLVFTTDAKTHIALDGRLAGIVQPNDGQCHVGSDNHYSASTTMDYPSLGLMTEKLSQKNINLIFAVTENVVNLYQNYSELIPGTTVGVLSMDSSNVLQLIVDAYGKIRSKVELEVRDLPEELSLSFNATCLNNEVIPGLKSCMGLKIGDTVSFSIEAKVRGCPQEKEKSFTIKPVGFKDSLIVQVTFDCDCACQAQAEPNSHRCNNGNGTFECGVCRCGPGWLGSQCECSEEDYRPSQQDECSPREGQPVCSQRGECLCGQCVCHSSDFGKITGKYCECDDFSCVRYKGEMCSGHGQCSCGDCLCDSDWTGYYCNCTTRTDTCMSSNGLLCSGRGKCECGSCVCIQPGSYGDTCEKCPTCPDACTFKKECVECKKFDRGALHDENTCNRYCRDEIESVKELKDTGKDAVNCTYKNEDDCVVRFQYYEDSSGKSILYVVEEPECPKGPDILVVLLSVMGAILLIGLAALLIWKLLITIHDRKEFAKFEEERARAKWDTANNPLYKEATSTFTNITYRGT", "assay": "Solid phase ligand binding assay (ELISA)", "method": "as §1, §2, §3"}, "αvβ5 integrin": {"target": "αvβ5 integrin (Homo sapiens, UniProt P06756+P18084)", "sequence (P06756 31-889 limits assumed)": "as the sequence (P06756 31-889 limits assumed) above", "sequence (P06756 891-1048 limits assumed)": "as the sequence (P06756 891-1048 limits assumed) above", "sequence (P18084 24-799)": "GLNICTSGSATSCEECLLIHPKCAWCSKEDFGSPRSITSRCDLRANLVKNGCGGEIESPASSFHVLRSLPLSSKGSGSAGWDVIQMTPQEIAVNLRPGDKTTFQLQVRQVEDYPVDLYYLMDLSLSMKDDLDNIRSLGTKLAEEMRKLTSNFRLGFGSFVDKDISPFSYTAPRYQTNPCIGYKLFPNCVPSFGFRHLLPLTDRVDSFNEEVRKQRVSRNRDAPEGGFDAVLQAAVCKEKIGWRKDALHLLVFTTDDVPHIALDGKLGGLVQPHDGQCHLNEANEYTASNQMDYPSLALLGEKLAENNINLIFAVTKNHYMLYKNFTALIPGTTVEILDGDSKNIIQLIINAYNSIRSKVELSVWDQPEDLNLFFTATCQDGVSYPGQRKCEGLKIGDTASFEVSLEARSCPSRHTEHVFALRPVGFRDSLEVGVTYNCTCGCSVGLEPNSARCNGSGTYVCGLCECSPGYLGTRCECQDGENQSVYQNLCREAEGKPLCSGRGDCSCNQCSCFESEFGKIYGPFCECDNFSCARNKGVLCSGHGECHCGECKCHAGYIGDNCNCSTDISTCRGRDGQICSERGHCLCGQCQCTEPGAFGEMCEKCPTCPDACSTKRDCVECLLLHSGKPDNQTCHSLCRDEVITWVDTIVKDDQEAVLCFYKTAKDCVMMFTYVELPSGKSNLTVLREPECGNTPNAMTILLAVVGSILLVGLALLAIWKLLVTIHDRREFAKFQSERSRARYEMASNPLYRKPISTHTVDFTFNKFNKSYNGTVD", "assay": "Solid phase ligand binding assay (ELISA)", "conditions": "immobilized integrin, GST-fusion ligand in solution", "method": "as §1, §2, §3"}, "endothelial cells": {"system": "endothelial cells", "assay": "Adhesion of endothelial cells to wells coated with GST fusion proteins", "assay_type": "cell-based, human", "conditions": "coating 1, 5, 10 nM; 45 min", "method": "FIG. 10A: Affinity purified GST-fusion proteins were resolved on SDS±PAGE and stained with Coomassie Blue. FIG. 10B: Integrins were immobilized onto 96-well plates, and various GST-fusion proteins (ligands) were allowed to bind. Bound ligands were incubated with anti-GST antibodies, appropriate substrate added and the color intensity measured. OD values <0.05 were considered to be background binding. Data are expressed as mean±SD (n=4). FIG. 10C: Dose-dependent binding of αvβ3 integrin with recombinant GST-VCIP-RGD. FIGS. 10D-F: Representative photomicrographs of adhesion and spreading of endothelial cells replated onto dishes coated with either fibronectin (FIG. 9D), vitronectin (FIG. 9E) or GST-VCIP-RGD (FIG. 9F). […] Attached cells were stained, washed and absorbances of eluted dyes measured. […] Attached cells were stained, washed and absorbances of eluted dyes determined. […] Data are expressed as mean±S.D.; diamond, P<0.01; asterisk, P<0.001. […]\nFor adhesion blocking assays, endothelial cells were detached, washed with PBS and resuspended in M199 media containing 1 mM CaCl2 and 1 mM MgCl2 in the absence of serum or growth factors. […] Absorbances were measured at 540 nm.\nNext, the capacity of VCIP-RGD to bind endothelial cell integrins was evaluated by determining the effect of GST-VCIP fusion proteins on cell adhesion and spreading."}, "αvβ3 and α5β1 integrins": {"system": "αvβ3 and α5β1 integrins", "assay": "GST pull-down from [35S]Cys/Met-labelled endothelial cell lysates", "assay_type": "binding, human", "conditions": "10 μg per 3 mg lysate"}, "[1]": {"system": "Fak, Cas, Shc and paxillin", "assay": "Tyrosine phosphorylation of focal adhesion proteins in replated HUVECs", "assay_type": "cell-based, human", "conditions": "HUVECs replated on coated dishes, 30 and 60 min", "method": "Dishes were coated with either fibronectin (Fn, 10 μg/ml), vitronectin (Vn, 10 μg/ml) or affinity purified GST-VCIP-RGD or -RGE fusion proteins (10 and 20 nM). Endothelial cells were detached, washed and maintained in suspension (Sus) for 30 min, then allowed to re-attach for 30 or 60 min. Adherent cells were solubilized in RIPA buffer. Blots shown are representative of those obtained in at least three separate experiments. FIGS. 11A-E: Equal amounts of protein (˜1.0 mg) from clarified extracts were subjected to immunoprecipitation (IP) followed by immunoblotting using the indicated antibodies. FIG. 11F: Equal amounts of protein from total lysates (35 μg/lane) were subjected to immunoblotting with the anti-phospho-Erk½ antibody. FIG. 11G: The same membrane was stripped and re-probed with an anti-Erk½ antibody, showing that equivalent amounts of proteins used across the lanes.\nSerum- and growth factor-starved HUVECs were allowed to attach and spread on dishes coated with optimal concentrations of fibronectin, vitronectin, GST-RGD-VCIP and GST-VCIP-RGE. Cells were harvested after 30 and 60 min at 37° C. Cells were then solubilized, clarified, pre-adsorbed, immunoprecipitated and subjected to immunoblotting with various antibodies as shown in FIG. 11. […] Cells that were replated onto GST-VCIP-RGE appeared rounded."}},
  "note": "Where no end group is shown, it is not given here.",
  "data": [
    {"substance": "GST-VCIP-RGD: recombinant GST fusion of 49 amino acid residues (145-194) of VCIP second extracellular loop, wild-type RGD (DIAKVSIGRLRPHFLSVCNPDFSQINCSEGYIQNYRCRGDDSKVQEARKS; cysteine pairing not given here; also: GST fusion)", "values": [
      {"measurement": "interaction with α2β1 integrin", "setting": "α2β1 integrin", "result": "did not"},
      {"measurement": "interaction with α5β1 integrin", "setting": "α5β1 integrin", "result": "interacted"},
      {"measurement": "dose-dependence of binding to αvβ3 integrin", "setting": "αvβ3 integrin; FIG. 10C", "result": "bound to αvβ3 integrin in a dose-dependent manner"},
      {"measurement": "interaction with αvβ3 integrin", "setting": "αvβ3 integrin; immobilized integrin, GST-fusion ligand in solution", "result": "interacted"},
      {"measurement": "interaction with αvβ5 integrin", "setting": "αvβ5 integrin", "result": "did not"},
      {"measurement": "adhesion of endothelial cells to coated wells", "setting": "endothelial cells", "result": "comparable to that observed in wells coated with vitronectin and fibronectin substrates"},
      {"measurement": "integrins present in pull-down complex", "setting": "αvβ3 and α5β1 integrins", "result": "contained anti-αvβ3 and -α5β1 immunoreactivities"},
      {"measurement": "tyrosine phosphorylation of Fak, Cas, Shc and paxillin", "setting": "[1]", "result": "comparable to those induced by fibronectin and vitronectin"},
      {"measurement": "tyrosine phosphorylation of Fak, Cas, Shc and paxillin", "setting": "[1]; listed as VCIP-RGD", "result": "induced tyrosine phosphorylation of Fak, Cas, Shc and paxillin at both 30 and 60 min"}
    ]}
  ]
}
